Experimental data reported in paper PMC10144703, “Molecular Mechanism of Sirtuin 1 Inhibition by Human Immunodeficiency Virus 1 Tat Protein” (Life, 2023).

Target: T1, human full-length Sirt1 (fl-Sirt1) (Homo sapiens, UniProt Q96EB6)
T1 construct: human full-length Sirt1 (fl-Sirt1) in pET-15b; made in house; host or cells: E. coli CodonPlus(DE3)
T1 sequence (Q96EB6 1-747): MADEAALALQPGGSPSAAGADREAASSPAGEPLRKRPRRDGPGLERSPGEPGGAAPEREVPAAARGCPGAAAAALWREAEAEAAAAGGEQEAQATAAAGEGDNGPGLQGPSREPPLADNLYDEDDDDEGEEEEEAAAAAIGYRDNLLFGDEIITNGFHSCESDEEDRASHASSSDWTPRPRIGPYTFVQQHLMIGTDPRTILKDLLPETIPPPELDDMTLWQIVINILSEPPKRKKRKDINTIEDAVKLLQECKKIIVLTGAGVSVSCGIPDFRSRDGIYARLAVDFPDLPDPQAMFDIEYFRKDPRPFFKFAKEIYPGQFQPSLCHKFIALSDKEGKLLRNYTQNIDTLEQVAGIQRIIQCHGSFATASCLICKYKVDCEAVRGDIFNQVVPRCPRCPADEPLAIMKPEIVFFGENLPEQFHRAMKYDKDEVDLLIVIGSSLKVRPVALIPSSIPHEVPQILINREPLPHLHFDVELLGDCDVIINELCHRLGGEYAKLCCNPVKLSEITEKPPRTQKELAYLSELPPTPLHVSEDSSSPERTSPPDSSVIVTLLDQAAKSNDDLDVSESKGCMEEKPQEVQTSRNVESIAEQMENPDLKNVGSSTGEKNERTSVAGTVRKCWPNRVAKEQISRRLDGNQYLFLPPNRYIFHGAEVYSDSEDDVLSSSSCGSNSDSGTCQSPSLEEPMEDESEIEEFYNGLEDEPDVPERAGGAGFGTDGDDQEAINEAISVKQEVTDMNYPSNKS
Assay: FdL deacetylation assay, fl-Sirt1
Assay type: biochemical
Conditions: FdL assay, 100 µM FdL-1, 500 µM NAD^+, pH 7.8, 37 °C; n = 2; read-out: IC50, fl-Sirt1, truncated Tat-Cys^− constructs
Description: A human mini-Sirt1 construct (aa 183-505-(GGGS)2-641-665), as described in [27], was generated in a modified pET-19b with a TEV cleavage site. This construct and human full-length Sirt1 (fl-Sirt1) in pET-15b, Sirt1-(183-664) and Sirt1-(214-664) in pET-15b, mini-Sirt1-∆SBD (aa 214-505-(GGGS)2-641-665) and mini-Sirt1-∆ESA (aa 183–505) in a modified pET-19b with TEV cleavage site, Sirt2-(43-356) in a modified pET-19b with a His6-Sumo tag, Sirt3-(93-399) in a modified pET-32a with Trx-His6 tag and TEV cleavage site, hSirt3-(118-399) in pVFT3S (Sungkyunkwan University, Seoul, Republic of Korea) with His6-Trx tag and TEV cleavage site, Sirt5-(34-302) in pET-151/D-TOPO, and Sirt6-(1-355) in pQE80L.1 were purified as described. Shortly, proteins were expressed at 20 °C (mini-Sirt1 constructs at 16 °C) in E. coli CodonPlus(DE3), cell lysates were cleared by centrifugation, and proteins were purified via affinity chromatography using a nickel NTA column. After digestion with thrombin or TEV protease, proteins were re-run over the nickel NTA column, pooled, and concentrated. The samples were, then, subjected either directly to size exclusion chromatography in 50 mM Tris/HCl, pH 8.0, 150 mM NaCl, 1 mM TCEP, or to an ion exchange chromatography followed by size exclusion chromatography. […]

B1: Tat-Cys^− residues 1–63: C-terminally shortened Tat-Cys^− construct, residues 1–63 (protein)
chain: MDPVDPNIEPWNHPGSQPKTASNRAHAKKSAYHSQVAFITKGLGISYGRKKRRQRRRPSQGGQ
B1 was tested, and the IC50 was about 10 µM.
